The numbers were not newly measured in PMC6272133, which cites them from elsewhere.

This data set has as its target LLT1 (Homo sapiens) (UniProt Q9UHP7). The data set can be described thus: SPR. Background: SPR reads the build-up and loss of mass on a sensor chip optically.
Chain of UniProt Q9UHP7 (Q9UHP7 60-191): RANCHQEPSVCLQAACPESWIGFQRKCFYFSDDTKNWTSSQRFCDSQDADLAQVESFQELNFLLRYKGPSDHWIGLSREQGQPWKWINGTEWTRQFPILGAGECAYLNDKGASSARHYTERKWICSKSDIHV

For NKRP1A ECD (from UniProt Q12918), the Kd (usually the concentration at which binding is half-saturated) is 48 µM.
